The values that follow come from publication PMC11794253.

The target in assay [1] is human neonatal Fc receptor (hFcRn) (human) (UniProt P55899). Kind of assay: SPR. On the technique in general: SPR reads the build-up and loss of mass on a sensor chip optically.
For assay [2], the target named is His-tagged FcγRIIIa/CD16a extracellular domain (amino acids 17-208), V158 allotype (UniProt P08637). Kind of assay: SPR.
Chain of UniProt P08637 (P08637 17-208 F176V): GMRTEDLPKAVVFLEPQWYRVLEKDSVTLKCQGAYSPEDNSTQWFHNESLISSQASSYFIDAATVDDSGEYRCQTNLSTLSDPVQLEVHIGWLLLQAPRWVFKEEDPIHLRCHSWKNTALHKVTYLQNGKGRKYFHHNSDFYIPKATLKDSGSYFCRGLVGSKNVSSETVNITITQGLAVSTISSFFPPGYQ

Chain of UniProt P55899 (P55899 24-297, chain 1 of 2): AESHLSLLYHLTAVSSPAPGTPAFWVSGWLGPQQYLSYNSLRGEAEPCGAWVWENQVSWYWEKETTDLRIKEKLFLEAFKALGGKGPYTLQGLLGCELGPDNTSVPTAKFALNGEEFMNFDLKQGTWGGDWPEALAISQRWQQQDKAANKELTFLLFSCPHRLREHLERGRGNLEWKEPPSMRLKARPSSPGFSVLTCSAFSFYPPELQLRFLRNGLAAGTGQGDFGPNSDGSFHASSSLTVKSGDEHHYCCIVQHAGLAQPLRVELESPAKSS
Chain of UniProt P55899 (P61769 21-119, chain 2 of 2, further chain): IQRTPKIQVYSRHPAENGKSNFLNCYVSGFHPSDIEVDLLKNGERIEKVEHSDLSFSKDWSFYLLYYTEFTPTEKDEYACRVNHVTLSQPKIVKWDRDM

B1: COVA2-15 IgG1, wild type, produced in N. benthamiana ΔXT/FT (antibody, V domains shown)
VH: QVQLLESGGGLVQPGGSLRLSCAASGFTFSSYAMSWVRQAPGKGLEWASAISGSGGSTYYADSVEGRFTISRDNSKNTLYLQMNSLRAEDTAVYYCAKDTGYCGDDCYIKLIRGGPDYWGQGTLVTVSS
VL: DIVMTQSPLSLPVTLGQPASISCRSSQSLVYSDGNTFLNWFQQRPGQSPRRLIYQVSNRDSGVPDRFSGSGSGTDFTLKISRVEAEDVGVYYCMQGTHWPRTFGQGTKLEIK
As usually defined, the kon is the rate constant with which the complex forms. A high value points to faster complex formation. Usually Kd stands for the concentration at which binding is half-saturated. With B1, the on-rate (kon) in assay [1] was 389000 M⁻¹ s⁻¹; in assay [2], 306000 M⁻¹ s⁻¹. In addition, the Kd in assay [1] (KD from steady-state analysis) came out at 344 nM; in assay [1] (kinetic 1:1 binding model fit) it was 196 nM; in assay [2] (from kinetic rate constants), 127 nM; in assay [2] (steady-state analysis), 259 nM.
